Patent US20140206628A1

How the values were obtained:
Settings in all cases: remark: other sources report otherwise
[1] = target: A/Solomon Islands/3/06 (H1N1)
A/USSR/90/77 (H1N1) = target: A/USSR/90/77 (H1N1)
A/AA/Marton/43 (H1N1) = target: A/AA/Marton/43 (H1N1)
A/Beijing/262/95 (H1N1) = target: A/Beijing/262/95 (H1N1)

B1: HB80.3 ([change], [change], [change], [change], Delta54-95) (designed binder)
chain: MASTRGSGRPWGFSENLAFELALSFTNKDTPDRWAKVAQYVSGRTPEEVKKHYE
Kd [1]: 100 nM | Kd (A/USSR/90/77 (H1N1)): 10 nM | Kd (A/AA/Marton/43 (H1N1)): 10 nM | Kd (A/Beijing/262/95 (H1N1)): 10 nM
